# Source: patent US20060140858A1, “Drug pre-targeting by means of bi-specific antibodies and hapten constructs comprising a carrier peptide and the active agent(s)” (Immunomedics, Inc., priority 2002, published 2006)
# What was measured:
# [1] = target: Ac-Lys(DTPA)-Tyr-Lys(DTPA)-Lys(Tscg-Cys)-NH2 (IMP 192); assay: in vivo, calculated from biodistribution in GW-39 tumor-bearing mice, 3 h after 99m-Tc-IMP-192, assuming one peptide per bsAb
# [2] = target: Ac-Lys(DTPA)-Tyr-Lys(DTPA)-Lys(Tscg-Cys)-NH2 (IMP 192); assay: in vivo, calculated from biodistribution in GW-39 tumor-bearing mice, 1 h after 99m-Tc-IMP-192, assuming one peptide per bsAb
# [3] = target: Ac-Lys(DTPA)-Tyr-Lys(DTPA)-Lys(Tscg-Cys)-NH2 (IMP 192); assay: in vivo, calculated from biodistribution in GW-39 tumor-bearing mice, 24 h after 99m-Tc-IMP-192, assuming one peptide per bsAb
# [4] = target: Ac-Lys(DTPA)-Tyr-Lys(DTPA)-Lys(Tscg-Cys)-NH2 (IMP 192); assay: in vivo, calculated from biodistribution in GW-39 tumor-bearing mice, 30 min after 99m-Tc-IMP-192, assuming one peptide per bsAb
# [5] = target: carcinoembryonic antigen (CEA) (UniProt P06731); assay: analytical size exclusion HPLC, radioiodinated bsAb with 10-20x molar excess of CEA
# Sequence of carcinoembryonic antigen (CEA) (P06731 35-685 limits assumed): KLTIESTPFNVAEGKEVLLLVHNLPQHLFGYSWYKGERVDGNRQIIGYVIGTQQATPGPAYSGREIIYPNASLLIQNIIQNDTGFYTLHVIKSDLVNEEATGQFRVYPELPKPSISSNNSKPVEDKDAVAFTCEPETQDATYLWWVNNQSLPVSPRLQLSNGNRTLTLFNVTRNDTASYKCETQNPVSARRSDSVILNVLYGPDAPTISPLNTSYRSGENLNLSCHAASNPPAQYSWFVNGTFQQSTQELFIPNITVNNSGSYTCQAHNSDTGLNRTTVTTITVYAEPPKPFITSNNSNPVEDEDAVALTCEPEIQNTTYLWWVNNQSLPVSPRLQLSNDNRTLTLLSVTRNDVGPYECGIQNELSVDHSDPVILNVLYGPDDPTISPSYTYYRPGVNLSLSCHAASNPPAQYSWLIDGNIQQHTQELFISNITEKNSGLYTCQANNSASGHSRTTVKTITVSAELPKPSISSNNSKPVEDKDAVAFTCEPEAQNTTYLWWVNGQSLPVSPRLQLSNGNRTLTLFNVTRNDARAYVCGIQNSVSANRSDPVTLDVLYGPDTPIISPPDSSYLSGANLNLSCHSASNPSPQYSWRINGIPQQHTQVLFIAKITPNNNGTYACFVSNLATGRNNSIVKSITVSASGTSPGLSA
# [6] = target: carcinoembryonic antigen (CEA) (UniProt P06731); assay: SE-HPLC, 125I-labeled bsMAb with an excess of CEA
# [7] = target: peptide containing a single HSG substituent and a thiol (mono HSG peptide); assay: BIAcore, mono HSG peptide coupled to a CM-5 chip
# [8] = target: DOTA-Phe-Lys(HSG)-D-Tyr-Lys(HSG)-NH2 (IMP 241); assay: in vivo pretargeting, GW-39 tumors, 3 h after 111In-IMP-241
% saturation of the available DTPA binding sites on the tumor bound bsAb [1] [%],% saturation of the available DTPA binding sites on the tumor bound bsAb [2] [%],% saturation of the available DTPA binding sites on the tumor bound bsAb [3] [%],% saturation of the available DTPA binding sites on the tumor bound bsAb [4] [%],percent bound [5] [%],percent of radiolabeled product shifting to a higher molecular weight [6] [%],Kd [7] [nM],ratio of the % ID/g of the peptide compared to the bsMAb in the tumor [8],Substance
25,25.8,28,25.4,90,–,–,–,hMN-14 × 734 (Fab × Fab) bi-specific antibody (bispecific antibody)
–,–,–,–,–,> 90,1.5,3.9,hMN-14 × m679 F(ab′)2 bsMAb (bispecific antibody)
